Results: the supplement of paper PMC11246515
± gives the standard deviation of the averaged measurements.

Test: total protein half-life in vivo (active degradation + dilution); higher = more stable protein
[1] = E. coli NCM3722 delta-clpP delta-lon delta-hslV, growth: N-lim chemostat, doubling time 6 h
[2] = E. coli NCM3722 delta-clpP, growth: N-lim chemostat, doubling time 6 h
[3] = E. coli NCM3722 delta-hslV, growth: N-lim chemostat, doubling time 6 h
[4] = E. coli NCM3722 delta-lon, growth: N-lim chemostat, doubling time 6 h
[5] = E. coli NCM3722 delta-smpB, growth: N-lim chemostat, doubling time 6 h
[6] = wild type E. coli NCM3722, growth: C-lim chemostat, doubling time 6 h
[7] = wild type E. coli NCM3722, growth: C-lim chemostat, doubling time 12 h
[8] = wild type E. coli NCM3722, growth: N-lim chemostat, doubling time 6 h
[9] = wild type E. coli NCM3722, growth: N-lim chemostat, doubling time 12 h
[10] = wild type E. coli NCM3722, growth: P-lim chemostat, doubling time 6 h
[11] = wild type E. coli NCM3722, growth: P-lim chemostat, doubling time 12 h
[12] = wild type E. coli NCM3722, growth: C-lim chemostat, doubling time 3 h

Row | Sequence | total protein half-life in vivo [1] [h] | total protein half-life in vivo [2] [h] | total protein half-life in vivo [3] [h] | total protein half-life in vivo [4] [h] | total protein half-life in vivo [5] [h] | total protein half-life in vivo [6] [h] | total protein half-life in vivo [7] [h] | total protein half-life in vivo [8] [h] | total protein half-life in vivo [9] [h] | total protein half-life in vivo [10] [h] | total protein half-life in vivo [11] [h] | total protein half-life in vivo [12] [h]
1 | MSRMAEQQLYIHGGYTSATSGRTFETINPANGNVLATVQAAGREDVDRAVKSAQQGQKIWASMTAMERSRILRRAVDILRERNDELAKLETLDTGKAYSETSTVDIVTGADVLEYYAGLIPALEGSQIPLRETSFVYTRREPLGVVAGIGAWNYPIQIALWKSAPALAAGNAMIFKPSEVTPLTALKLAEIYSEAGLPDGVFNVLPGVGAETGQYLTEHPGIAKVSFTGGVASGKKVMANSAASSLKEVTMELGGKSPLIVFDDADLDLAADIAMMANFFSSGQVCTNGTRVFVPAKCKAAFEQKILARVERIRAGDVFDPQTNFGPLVSFPHRDNVLRYIAKGKEEGARVLCGGDVLKGDGFDNGAWVAPTVFTDCSDDMTIVREEIFGPVMSILTYESEDEVIRRANDTDYGLAAGIVTADLNRAHRVIHQLEAGICWINTWGESPAEMPVGGYKHSGIGRENGVMTLQSYTQVKSIQVEMAKFQSIF | 5.11 ± 0.25 | 5.45 ± 1.3 | 5.06 ± 0.11 | 5.28 ± 0.61 | 4.486 ± 0.038 | 5.21 ± 0.24 | 11.1 ± 0.13 | 4.37 ± 0.14 | 7.63 ± 0.23 | 6 ± 0.24 | 11.7 ± 0.46 | –
2 | MSRNTEATDDVKTWTGGPLNYKEGFFTQLATDELAKGINEEVVRAISAKRNEPEWMLEFRLNAYRAWLEMEEPHWLKAHYDKLNYQDYSYYSAPSCGNCDDTCASEPGAVQQTGANAFLSKEVEAAFEQLGVPVREGKEVAVDAIFDSVSVATTYREKLAEQGIIFCSFGEAIHDHPELVRKYLGTVVPGNDNFFAALNAAVASDGTFIYVPKGVRCPMELSTYFRINAEKTGQFERTILVADEDSYVSYIEGCSAPVRDSYQLHAAVVEVIIHKNAEVKYSTVQNWFPGDNNTGGILNFVTKRALCEGENSKMSWTQSETGSAITWKYPSCILRGDNSIGEFYSVALTSGHQQADTGTKMIHIGKNTKSTIISKGISAGHSQNSYRGLVKIMPTATNARNFTQCDSMLIGANCGAHTFPYVECRNNSAQLEHEATTSRIGEDQLFYCLQRGISEEDAISMIVNGFCKDVFSELPLEFAVEAQKLLAISLEHSVG | 4.92 ± 0.3 | 2.89 ± 0.11 | 1.46 ± 0.085 | 1.98 ± 0.2 | 1.58 ± 0.085 | 3.12 ± 0.02 | 4.99 ± 0.85 | 1.51 ± 0.56 | 2.29 | 3.223 ± 0.00026 | 5.113 ± 0.048 | 1.85 ± 0.4
3 | MSRPLLQLALDHSSLEAAQRDVTLLKDSVDIVEAGTILCLNEGLGAVKALREQCPDKIIVADWKVADAGETLAQQAFGAGANWMTIICAAPLATVEKGHAMAQRCGGEIQIELFGNWTLDDARDWHRIGVRQAIYHRGRDAQASGQQWGEADLARMKALSDIGLELSITGGITPADLPLFKDIRVKAFIAGRALAGAANPAQVAGDFHAQIDAIWGGARA | 4.65 | 4 | 4.08 ± 0.35 | 4.77 | 4.3 ± 0.38 | 5.17 ± 0.32 | 9.07 ± 0.79 | 3.93 | 6.66 ± 0.91 | 5.76 | 9.91 ± 0.32 | 3.07 ± 0.25
4 | MSRRAGTPTAKKVTQLVNVEEHVEGFRQVREAHRRELIDDYVELISDLIREVGEARQVDMAARLGVSQPTVAKMLKRLATMGLIEMIPWRGVFLTAEGEKLAQESRERHQIVENFLLVLGVSPEIARRDAEGMEHHVSEETLDAFRLFTQKHGAK [P0A9F1] | 5.72 ± 0.35 | 5.64 ± 0.32 | 4.73 ± 0.12 | 6 ± 0.3 | 5.06 ± 0.61 | 5.03 ± 0.24 | 12 ± 5.5 | 4.66 ± 0.23 | 9.78 ± 2.5 | 3.96 ± 0.21 | 8.06 ± 0.26 | 3 ± 0.046
5 | MSRRNTDAITIHSILDWIEDNLESPLSLEKVSERSGYSKWHLQRMFKKETGHSLGQYIRSRKMTEIAQKLKESNEPILYLAERYGFESQQTLTRTFKNYFDVPPHKYRMTNMQGESRFLHPLNHYNS [P0ACH5] | 3.42 ± 0.064 | – | – | > 8 | – | – | – | – | – | – | – | –
6 | MSSEKLYSPLKVGAITAANRIFMAPLTRLRSIEPGDIPTPLMAEYYRQRASAGLIISEATQISAQAKGYAGAPGIHSPEQIAAWKKITAGVHAENGHMAVQLWHTGRISHASLQPGGQAPVAPSALSAGTRTSLRDENGQAIRVETSMPRALELEEIPGIVNDFRQAIANAREAGFDLVELHSAHGYLLHQFLSPSSNHRTDQYGGSVENRARLVLEVVDAGIEEWGADRIGIRVSPIGTFQNTDNGPNEEADALYLIEQLGKRGIAYLHMSEPDWAGGEPYTDAFREKVRARFHGPIIGAGAYTVEKAETLIGKGLIDAVAFGRDWIANPDLVARLQRKAELNPQRAESFYGGGAEGYTDYPTL | 5.08 ± 0.17 | 2.14 ± 0.038 | 1.51 ± 0.027 | – | 1.5 ± 0.061 | 2.98 ± 0.53 | 3.17 ± 0.57 | 1.66 ± 0.12 | 2.097 ± 0.015 | 1.55 ± 0.16 | 2.85 ± 1.7 | 2.13 ± 0.48
7 | MSSKVERERRKAQLLSQIQQQRLDLSASRREWLETTGAYDRRWNMLLSLRSWALVGSSVMAIWTIRHPNMLVRWARRGFGVWSAWRLVKTTLKQQQLRG | 5.54 ± 0.84 | – | 6 ± 0.61 | 4.6 ± 1.6 | 5.78 ± 0.53 | 4.85 ± 0.21 | 8.71 | 5.6 ± 1.8 | 11.4 | 4.85 | 10.2 ± 0.32 | 2.56 ± 0.29
